{"source": "paper PMC2887854", "molecular_target": "protective antigen (PA83, 83 kDa), monomeric (Bacillus anthracis)", "sequence (P13423 30-764 limits assumed)": "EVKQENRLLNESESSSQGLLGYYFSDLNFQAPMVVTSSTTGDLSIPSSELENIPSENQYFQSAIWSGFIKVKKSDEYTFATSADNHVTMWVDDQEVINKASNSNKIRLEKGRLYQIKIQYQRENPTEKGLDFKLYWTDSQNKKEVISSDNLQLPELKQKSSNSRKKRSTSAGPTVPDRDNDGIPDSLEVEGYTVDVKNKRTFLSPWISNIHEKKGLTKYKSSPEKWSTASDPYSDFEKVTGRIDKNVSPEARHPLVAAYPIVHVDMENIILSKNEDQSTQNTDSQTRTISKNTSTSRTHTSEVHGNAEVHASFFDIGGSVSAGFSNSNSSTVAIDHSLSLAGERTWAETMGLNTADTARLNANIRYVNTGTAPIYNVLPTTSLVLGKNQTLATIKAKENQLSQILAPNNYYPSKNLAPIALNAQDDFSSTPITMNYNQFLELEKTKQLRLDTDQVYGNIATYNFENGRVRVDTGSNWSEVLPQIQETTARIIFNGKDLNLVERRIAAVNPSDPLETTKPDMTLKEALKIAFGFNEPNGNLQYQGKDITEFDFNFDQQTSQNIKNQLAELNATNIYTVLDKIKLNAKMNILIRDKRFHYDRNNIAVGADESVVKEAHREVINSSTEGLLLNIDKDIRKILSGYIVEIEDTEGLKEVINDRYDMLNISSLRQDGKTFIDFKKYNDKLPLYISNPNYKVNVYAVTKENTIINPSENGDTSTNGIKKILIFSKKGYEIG", "assay": "SPR"}
{"substance": "CMG2-R40 vWA domain (residues 40-217) (from UniProt P58335 40-217) (domain or fragment)", "values": [{"measurement": "Kd", "result": 2.43, "unit": "nM"}, {"measurement": "koff", "result": 0.000105, "unit": "s⁻¹"}, {"measurement": "kon", "result": 45300, "unit": "M⁻¹ s⁻¹"}]}
